Experimental findings from the supplement of paper PMC12764529 are described below.

Data set [1] in a line: folding stability dG unfold (combined trypsin and chymotrypsin); higher = more stable. An outline of the steps: (§1)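 Designed mini-proteins with no cysteine and under 80 residues were kept only if AlphaFold2 dimer inter-PAE was above 15. In a PA-tagged cDNA display construct, they were digested with trypsin and chymotrypsin and then sequenced. K50 was inferred by Bayesian fitting of counts, and unfolding free energy was derived per protease or combined against a sequence-predicted unfolded-state K50 and a shared folded-state K50.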

The nature of data set [2]: folding stability dG unfold from chymotrypsin proteolysis; higher = more stable. An outline of the steps:
as §1

The nature of data set [3]: folding stability dG unfold from trypsin proteolysis; higher = more stable. In short, it runs like this: as §1

± gives the half width of the 95% confidence interval.

As to “SAGATFKPGQTVTVVEVKVEVSVSLSRNADGSVSLSVSVRVEVKTTTVTLPEPATVTLPPGVKSLEDLLSAG [r5_770_TrROS_Hall]”, the “folding stability dG unfold” value in data set [1] was found to be 3.27 ± 0.089 kcal/mol; in data set [2] it was 3.73 ± 0.096 kcal/mol; in data set [3], 2.37 ± 0.097 kcal/mol.

For “SAGAVEKLRKELEELGYEVELEEVEDEETGKTYFILRIRNPDGEIYEIKVDKKTGEIVEIFKVDNLEELSAG [r5_938_TrROS_Hall]”, the results for the “folding stability dG unfold” value in data set [1], in data set [2] and in data set [3] were 4.14 ± 0.19 kcal/mol, 4.17 ± 0.064 kcal/mol and 3.83 ± 0.17 kcal/mol, respectively.

On to “SAGDAIADLLKEAGFEIDSVDSIEPTDGSYVIGFKFEFPNGWYMEITIWIDPNNPDKIEIDIKMQPPDESAG [r5_683_TrROS]”, for which the figures for the “folding stability dG unfold” value in data set [1], in data set [2] and in data set [3] were 4.06 ± 0.45 kcal/mol, 4.43 ± 0.33 kcal/mol and 2.6 ± 0.28 kcal/mol, respectively.

As for “SAGDALKDLAPDVEITPSSFPFAFPPSRPVLAASIVAHPDNTITVFLTEVHPDGGARVLVYTLHLSDKSAGG [r19_125_TrMRF]”, the “folding stability dG unfold” value worked out at 3.05 ± 0.14 kcal/mol in data set [1], 3.2 ± 0.051 kcal/mol in data set [2] and 2.78 ± 0.12 kcal/mol in data set [3].

In the case of “SAGDALKEAAKPGEEVTVRLRLTLTFTTETFTDDDGRERTVETVTVTVELEARVVAVDPETGELVIELRSAG [r5_5_TrROS_Hall]”, the “folding stability dG unfold” value in data set [1] is 3.52 ± 0.18 kcal/mol; in data set [2], 4.19 ± 0.14 kcal/mol; in data set [3], 2.56 ± 0.12 kcal/mol.

“SAGDEIEEKVKEILEKLNPDEPVVIKRTKDGRILAENPKTGKFIIFDISPDGTIKIVKVVPAEEAKKLGSAG [r5_852_TrMRF]”: the results for the “folding stability dG unfold” value in data set [1], in data set [2] and in data set [3] were 2.18 ± 0.19 kcal/mol, 2.52 ± 0.071 kcal/mol and 1.47 ± 0.12 kcal/mol, respectively.

For the sequence “SAGDGITVNPEKVTLTLDITLPDGTVLRVTVTLTPDGVEVTVEPVPVPPLPGATSPEEAEELLKQALASSAG [r5_272_TrMRF]”, the “folding stability dG unfold” value in data set [1] worked out at 2.34 ± 0.083 kcal/mol; in data set [2], 2.37 ± 0.086 kcal/mol; in data set [3], 1.99 ± 0.09 kcal/mol.

In the case of “SAGDKGRYHFPFTVTMPPGKPPSQIEDALGKYGWDDVDINREPPPNGETKYTINVHMPKEDLPKLLEAFSAG [r5_376_TrROS]”, the “folding stability dG unfold” value turned out to be 0.963 ± 0.12 kcal/mol in data set [1], 0.933 ± 0.26 kcal/mol in data set [2] and 0.895 ± 0.039 kcal/mol in data set [3].

As to “SAGDKIEIKFNIPMPEGPIRIMVWDNGKREEKDIPPGEEVTIKIDLPPGDDYRIAIYYPDGNMHEFPINSAG [r5_187_TrROS]”, the “folding stability dG unfold” value in data set [1] was 2.47 ± 0.25 kcal/mol; in data set [2], 3.31 ± 0.14 kcal/mol; in data set [3] it was 1.65 ± 0.17 kcal/mol.

“SAGDNMYKYDYENPWYGIKIEVWVSPNGQIVSIKVKIEKVPPVPPKPPIDPEDMVPDPDGKYRSPNDLDSAG [r5_685_TrROS]”: the results for the “folding stability dG unfold” value in data set [1], in data set [2] and in data set [3] were 1.95 ± 0.099 kcal/mol, 2.26 ± 0.026 kcal/mol and 1.4 ± 0.098 kcal/mol, respectively.

With “SAGDVVEIEITYWVPPDEMTVDEFVDHIMSMLPGVKVKSIEIDEIHPYPDGWYEVTVNYTIEVPPGQEISAG [r5_682_TrROS]”, the “folding stability dG unfold” value in data set [1] was found to be 2.81 ± 0.16 kcal/mol; in data set [2], 2.82 ± 0.12 kcal/mol; in data set [3], 2.53 ± 0.39 kcal/mol.

Consider “SAGDWYIVIKITIYHPNKREREFPIVFDWKDGKIEIAPEFLQNIAEELGLPPNMKIEIEIVEIMPPNDSAGG [r19_287_TrROS]”, for which the “folding stability dG unfold” value in data set [1] came to 2.43 ± 0.55 kcal/mol; in data set [2] it was 3.22 ± 0.099 kcal/mol; in data set [3], 1.75 ± 0.12 kcal/mol.

With “SAGEEIAKRLAEELKEKGYEVEVKVTVEYDEETGEVTITIEIKVKPKPAPPVKIEKKLEGMSEEEKKALSAG [r5_413_TrROS_Hall]”, the “folding stability dG unfold” value in data set [1] came to 0.187 ± 0.29 kcal/mol; in data set [2], 0.137 ± 0.084 kcal/mol; in data set [3], 0.113 ± 0.12 kcal/mol.

Consider “SAGEEPPEVTIKVVEKDGKLVIEVEYNGKTLTITLEDGEKIEIKFPEGMSEEELLEEAKRLAKELAEKSAGG [r19_170_TrROS_Hall]”, for which the “folding stability dG unfold” value stood at 2.63 ± 0.39 kcal/mol in data set [1], 1.9 ± 0.25 kcal/mol in data set [2] and 3.05 ± 0.35 kcal/mol in data set [3].

On to “SAGEIKITVEEVEDGELLVTVEITAESKEEALKALEDLIRELFGEDVEIVSVEFDEETKRIRVTIRIKPSAG [r5_810_TrROS_Hall]”, for which the results for the “folding stability dG unfold” value in data set [1], in data set [2] and in data set [3] were 4.35 ± 0.35 kcal/mol, 3.51 ± 0.29 kcal/mol and 4.25 ± 0.21 kcal/mol, respectively.

With “SAGEKEFEIVEVKVNKETNEVYFLVRDKEKNRLIKVHSNGTVEIYDLKDPGKKITINMSLEELLALLKKSAG [r5_491_TrROS_Hall]”, the results for the “folding stability dG unfold” value in data set [1], in data set [2] and in data set [3] were 4.08 ± 0.19 kcal/mol, 4.26 ± 0.19 kcal/mol and 2.49 ± 0.16 kcal/mol, respectively.

Take “SAGEKIKEALKKAGVEKVEIVEIKRLKNGKVLIVIRLHPDMSEEQRRRLLKALADALREEFPDVKIVELSAG [r5_101_TrROS_Hall]”: the “folding stability dG unfold” value in data set [1] was found to be 4.5 ± 0.052 kcal/mol; in data set [2], 4.33 ± 0.051 kcal/mol; in data set [3], 4.79 ± 0.13 kcal/mol.

In the case of “SAGEKKEKEKEKKKEEEEKKKKEEEKKKEEEKKKEKTLKLEFTLPDGSKIEIEMTVEELKKLGLSPEELSAG [r5_12_TrROS_Hall]”, the “folding stability dG unfold” value was 1.03 ± 0.42 kcal/mol in data set [1], 1.29 ± 0.12 kcal/mol in data set [2] and 0.836 ± 0.14 kcal/mol in data set [3].

As for “SAGEKPEKPPEVTITITSVKVERLPDGTVVVEVEAEIEVDGVTLTVRARFVYRDGKLFLEVEVRLEPLPSAG [r5_267_TrROS_Hall]”, the figures for the “folding stability dG unfold” value in data set [1], in data set [2] and in data set [3] were 4.59 ± 0.95 kcal/mol, 5.47 ± 0.24 kcal/mol and 3.5 ± 0.19 kcal/mol, respectively.

In the case of “SAGEKVEITLVVKVEKDEDGRYRLTEEELREIAKALGLDFEVKSVEIERVPGYLVIRVTVDGKEYEFLSAGG [r19_398_TrROS_Hall]”, the “folding stability dG unfold” value in data set [1] came to 2.98 ± 0.069 kcal/mol; in data set [2], 3.04 ± 0.033 kcal/mol; in data set [3], 2.95 ± 0.089 kcal/mol.

For the sequence “SAGELAEKLAEELRKLFPNAEVEVEVVEVKEDYVVVKIRLRVVDEETGEEKTVEVELTLVLKPGEILPSAGG [r19_8_TrROS_Hall]”, the “folding stability dG unfold” value in data set [1] came out at 4.29 ± 0.3 kcal/mol; in data set [2] it was 4.66 ± 0.44 kcal/mol; in data set [3], 3.79 ± 0.14 kcal/mol.

Turning to “SAGEVELEVPIEALKKLPNLEGATVRVTVKLNENGELEITIEVEKAPEPPLTEEEKKKLLEEEEKKKKSAGG [r19_313_TrROS_Hall]”, the “folding stability dG unfold” value in data set [1] is 1.06 ± 0.48 kcal/mol; in data set [2], 1.31 ± 0.31 kcal/mol; in data set [3] it was -0.203 ± 0.63 kcal/mol.

Consider “SAGEVKPGETVTLTIVLSKEELEKLEELAKALPGVEVTEVKVEKLPDGLVRVTITVTKEALEKLKELLESAG [r5_554_TrROS_Hall]”, for which the “folding stability dG unfold” value in data set [1] was found to be 3.5 ± 0.19 kcal/mol; in data set [2], 3.71 ± 0.22 kcal/mol; in data set [3], 3.28 ± 0.21 kcal/mol.

Regarding “SAGEWYRMSITFDLDPDNRDQLEKIAEKIREKDGFDKIEPVEHDPSNGRVTINVYMPPEAQDKIQEALRSAG [r5_193_TrROS]”, the entries for the “folding stability dG unfold” value in data set [1], in data set [2] and in data set [3] were 1.27 ± 0.18 kcal/mol, 1.25 ± 0.15 kcal/mol and 0.941 ± 0.1 kcal/mol, respectively.

Regarding “SAGFGVYKHKYKYDNDDGNPKPKKPEEEPVEPAPPIEPLPIPIRLPDGQPFTFTILSISPKNNNISLNGSAG [r5_735_TrROS]”, the entries for the “folding stability dG unfold” value in data set [1], in data set [2] and in data set [3] were 0.452 ± 0.2 kcal/mol, 0.382 ± 0.2 kcal/mol and 0.279 ± 0.22 kcal/mol, respectively.

On to “SAGFKIDDVETEKDPDGEKEITFRYVDPGDGRPWMLNLRINPNGKLTEENPVPFDDFPPGSYWTIRIKSAGG [r19_393_TrROS]”, for which the “folding stability dG unfold” value is 0.402 ± 0.18 kcal/mol in data set [1], -0.0517 ± 0.41 kcal/mol in data set [2] and 0.636 ± 0.14 kcal/mol in data set [3].

For “SAGFKIKIEPDKNMPPGQKPMTEEELKKIAKSIAKQMEQDPGNPGKEVKIEIPFYFPDGYWYRIEIEKSAGG [r19_132_TrROS]”, the “folding stability dG unfold” value worked out at 0.506 ± 0.34 kcal/mol in data set [1], 0.647 ± 0.29 kcal/mol in data set [2] and 0.259 ± 0.19 kcal/mol in data set [3].

For “SAGFQIERKRDPDGKYEVEIKFPHPDGHPMRVKIPINPKEGKIKIDEIESTNPGHKQRMEELARWFLKASAG [r5_266_TrROS]”, the “folding stability dG unfold” value is -0.44 ± 0.16 kcal/mol in data set [1], -0.526 ± 0.38 kcal/mol in data set [2] and -0.4 ± 0.29 kcal/mol in data set [3].

On to “SAGFSVEVTYNPPTGYLEIRFYNPPPNKPLKKETLEEIARKLLEELGIEGEIVEIKEEGNVYTIKVKIPSAG [r14_556_TrMRF]”, for which the “folding stability dG unfold” value in data set [1] was determined as 4.62 ± 0.084 kcal/mol; in data set [2] it was 4.65 ± 0.068 kcal/mol; in data set [3] it was 4.56 ± 0.19 kcal/mol.

With “SAGFTIEIENEDGKKITFRFPGWKIEIYPKDGIIMMRYPEENMSIMIKVDPNKIKIQVYDGGKWRWFPISAG [r5_786_TrROS]”, the “folding stability dG unfold” value came to 3.69 ± 0.47 kcal/mol in data set [1], 3.92 ± 0.08 kcal/mol in data set [2] and 2.86 ± 0.13 kcal/mol in data set [3].

With “SAGFWIRIDPKNPRIYISGMPPGMIELIAENAGAPDVTPVKPGRPWWDARDNHPDPDAVIPIPPENMMSAGG [r19_270_TrROS]”, the “folding stability dG unfold” value in data set [1] is 0.0233 ± 0.24 kcal/mol; in data set [2] it was -0.39 ± 0.39 kcal/mol; in data set [3], 0.319 ± 0.16 kcal/mol.

Consider “SAGGAEEIRKELGISPEEKVTVKLVVPEGGRPREFTVEMKPDELEKVLEELGVPPEKLEITEVEVIEESAGG [r13_681_JUSTAS]”, for which the “folding stability dG unfold” value in data set [1] was -0.456 ± 0.21 kcal/mol; in data set [2], -0.121 ± 0.21 kcal/mol; in data set [3], -1.39 ± 0.38 kcal/mol.

On to “SAGGAEELAKALADELRKLFPGEEIEVTVELVEVEVEPGQKVTLPDGSTVEVPPGAKVLVLKITVKPSAGGS [r16_357_TrROS_Hall]”, for which the results for the “folding stability dG unfold” value in data set [1], in data set [2] and in data set [3] were 3.44 ± 0.14 kcal/mol, 3.56 ± 0.13 kcal/mol and 3.13 ± 0.16 kcal/mol, respectively.

As for “SAGGAEVDPETKVVHIRIRARSAEELLAAIEALPADEVIIEVYNEETGKTERIRLSREELRKLLEEASAGGS [r16_797_TrROS_Hall]”, the entries for the “folding stability dG unfold” value in data set [1], in data set [2] and in data set [3] were 2.54 ± 0.031 kcal/mol, 2.82 ± 0.018 kcal/mol and 1.92 ± 0.021 kcal/mol, respectively.

Take “SAGGAFEMSNEYWFPDGFRVKLKVEVYPNGMFMLDLEIEPIPPPPPIKIEKDPDGEYKYDPNGQPQKDSAGG [r13_151_TrROS]”: the “folding stability dG unfold” value in data set [1] worked out at 2.91 ± 0.38 kcal/mol; in data set [2], 3.36 ± 0.18 kcal/mol; in data set [3] it was 2.58 ± 0.18 kcal/mol.
